± gives the half width of the 95% confidence interval.
Experiments:
[1] = folding stability dG unfold from trypsin proteolysis; higher = more stable
Procedure, shortened: (§1)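 Digests were run with trypsin and chymotrypsin at 11 concentrations in threefold dilutions, plus a no-protease condition, on designed mini-proteins in a PA-tagged cDNA display construct. The mini-proteins were under 80 residues, had no cysteine, and were kept only when AlphaFold2 dimer inter-PAE was above 15. After sequencing, Bayesian fitting of the counts gave K50, from which unfolding free energy was derived against a sequence-predicted unfolded-state K50 and a shared folded-state K50, per protease or combined.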

[2] = folding stability dG unfold from chymotrypsin proteolysis; higher = more stable
Procedure, shortened: as §1

[3] = folding stability dG unfold (combined trypsin and chymotrypsin); higher = more stable
Procedure, shortened: as §1

Sequence	folding stability dG unfold [1]	folding stability dG unfold [2]	folding stability dG unfold [3]
SAGGSAGGSATVTVTETNEDGEETTTEVEVFEVKPPPAPVLKVEAVIDPETNELVDVKVELFASAGGSAGGS [r12_539_TrROS_Hall]	1.36 ± 0.1 kcal/mol	0.201 ± 0.14 kcal/mol	0.784 ± 0.14 kcal/mol
SAGGSAGGSMVFESTSVYTFPEQNTVVVTKTTTTVTKTPDGSSSVSTSTTTTVLTVPPPEPLVSAGGSAGGS [r12_277_JUSTAS]	2.64 ± 0.12 kcal/mol	3.64 ± 0.13 kcal/mol	2.85 ± 0.3 kcal/mol
MKPIPAEEIRDLAQKLGLPLPPGQIQIKVRHNNKKKTFPIPAGDPITIDDIVENMQQQNPNIKDIEIVIHPS [r1_135_TrROS]	-0.754 ± 0.53 kcal/mol	-0.389 ± 0.28 kcal/mol	< -1 kcal/mol
SAGMMTIEIELKNGKKIKIEVEKKNGKYIIKITVYDKNGKKVKEVKIEVPKKNMSLEEIIKEALKKLLKSAG [r5_630_TrROS_Hall]	2.83 ± 0.2 kcal/mol	3.71 ± 0.28 kcal/mol	3.73 ± 0.47 kcal/mol
SAGGSAGGSAMTPDETRTVVVEEELPNGEPVVRVTDVRTLPDGSLETLGERVITREELEERSAGGSAGGSAG [r3_212_JUSTAS]	-0.438 ± 0.2 kcal/mol	0.743 ± 0.064 kcal/mol	0.394 ± 0.11 kcal/mol
SAGGSAGGSAGGPNPDMKFEIVTIKVPPDEVPKSEPIEDPDGHNFFLHFDGNTYTIWRMDSAGGSAGGSAGG [r7_97_TrROS]	0.987 ± 0.086 kcal/mol	1.39 ± 0.42 kcal/mol	0.933 ± 0.23 kcal/mol
SAGGSAGGSAGKNWFFRIKIKYPNGEERTIYIPGTLDEIKEELPGPIKNIDIEPMPAEDMSAGGSAGGSAGG [r11_596_TrROS]	1.05 ± 0.045 kcal/mol	1.76 ± 0.1 kcal/mol	1.52 ± 0.078 kcal/mol
SAGGSAGGSKTIVITIEPNVKTPEQLLELLKKIRELSKPGEKIVIIASPEVLEALKKAGLIEESAGGSAGGS [r12_992_TrROS_Hall]	3.2 ± 0.16 kcal/mol	3.7 ± 0.086 kcal/mol	3.49 ± 0.097 kcal/mol
SAGGKKVFTLDELKKLAEELNIEKIEVKEDEEGIYTFTFTDLAKKTGKEVTIKIVRNKNGELLVEIEPSAGG [r13_163_TrROS_Hall]	1.78 ± 0.074 kcal/mol	2.9 ± 0.087 kcal/mol	2.53 ± 0.14 kcal/mol
SAGGSAGGSAPLRFEFELPGNYRVRIELEPVPDDPSAGPRYRLRIEVFDLETGEVLPFEIDGSAGGSAGGSA [r18_66_TrMRF]	2.75 ± 0.065 kcal/mol	4.18 ± 0.064 kcal/mol	3.74 ± 0.061 kcal/mol
SAMLTILSVETHTLPNGEEIVTVTLKTPDLETLDALLAELGLTGTRDPDDPQVVTITTSREKVQEIKEKSAG [r14_777_JUSTAS]	3.34 ± 0.14 kcal/mol	4.71 ± 0.2 kcal/mol	4.57 ± 0.3 kcal/mol
SAGGMPVRVLITYESGEIPVTIPVDPNKVVEAEVELEDKTVKITVDPKAKTIKVDAPPSFKFEVLDPSAGGS [r16_761_JUSTAS]	0.35 ± 0.13 kcal/mol	0.257 ± 0.084 kcal/mol	0.277 ± 0.18 kcal/mol
SAGGSAGGSMKVVVTAKLPGGEVLQKTIPVDESVLKKMSKEEVIELLKKEGLPENVEIKFEPKSAGGSAGGS [r12_742_JUSTAS]	1.34 ± 0.067 kcal/mol	2.17 ± 0.15 kcal/mol	1.81 ± 0.24 kcal/mol
SAGEEVYLITVRIIDPETNEVKEITKLIKNKTEDEILEELRKLLEELGIELPEGAKVEITITKIKPPPESAG [r5_230_TrROS_Hall]	3.53 ± 0.52 kcal/mol	4.07 ± 0.44 kcal/mol	4.26 ± 0.82 kcal/mol
SAGGSAGGKITITLPGAEIVSVEESEDGKTITITVRLENGELLKITLKRVNGKWYITKIELLKPSAGGSAGG [r6_718_TrROS_Hall]	3.54 ± 0.086 kcal/mol	4.524 ± 0.038 kcal/mol	4.34 ± 0.068 kcal/mol
RVEVLENGEVIAVFPAEFLADIPPDDPLLLTLTLTLPDGYRVYVTFYNLPDGTVVAIARVEPVEVGPELAAS [r1_394_TrMRF]	3.32 ± 0.14 kcal/mol	4.46 ± 0.066 kcal/mol	4.22 ± 0.12 kcal/mol
SAGGSAGGSAGGIYPGPGNLLYFTGEDDYVKVIKITPPDNTIKIDIEIVPKGEATKIPYSAGGSAGGSAGGS [r10_257_TrMRF]	0.161 ± 0.059 kcal/mol	-0.331 ± 0.28 kcal/mol	-0.00595 ± 0.097 kcal/mol
SAGGAPNWKIEKIEIEYPGRKIEVWRHDNMWFIHIPAPPGYPIRIKIKIEPDNGETQTQERTFPIPPPSAGG [r13_191_TrROS]	1.75 ± 0.061 kcal/mol	2.83 ± 0.073 kcal/mol	2.37 ± 0.35 kcal/mol
SAGKKLIIRVEVYRREKNENGEIKKVTETLEVPPGATIEELVKALAPPGYTIRIEIIENGKIIETIEIKSAG [r5_278_TrROS_Hall]	2.14 ± 0.16 kcal/mol	3.59 ± 0.086 kcal/mol	3.23 ± 0.31 kcal/mol
SAGGAPSSSPIPIDLGDPNDEEKLKAEVEAIEKEYAAKGVTPITVERVGENKYRIKIPTGGVATVALSAGGS [r16_703_JUSTAS]	-0.55 ± 0.11 kcal/mol	-0.0876 ± 0.12 kcal/mol	-0.169 ± 0.12 kcal/mol
SAGGSAMTAEELKGMKVKITLKNGKKIEAKIKKVEVINGEIYIEIDGKKIKLKKNEKYKIEIVEKKSAGGSA [r15_355_TrROS_Hall]	1.84 ± 0.093 kcal/mol	2.22 ± 0.067 kcal/mol	2.06 ± 0.16 kcal/mol

Sequence	folding stability dG unfold [1]	folding stability dG unfold [2]	folding stability dG unfold [3]
SLRDIAKEIAEKAGMDPEDVEINVETEPDPKNGKPRLRITVSIEHPNRKYMIKIDFQDGEIEEIMPLEDISA [r9_1219_TrROS]	1.66 ± 0.099 kcal/mol	1.97 ± 0.089 kcal/mol	1.74 ± 0.3 kcal/mol
SAGGSAGGSAEELLKKLAEELGLEEGDEVTIEVDGKLIKIYFNKDGKIVKVEVYELDPEDLSAGGSAGGSAG [r3_468_TrROS_Hall]	2.01 ± 0.11 kcal/mol	3.59 ± 0.087 kcal/mol	3.25 ± 0.079 kcal/mol
SAGGSAGGSAGGSGDPNNPVTLLVLDVPSPEPAGTVYYFPDGYVAVNFPSINRTLVFYGSAGGSAGGSAGGS [r4_78_TrMRF]	0.766 ± 0.036 kcal/mol	1.42 ± 0.15 kcal/mol	1.2 ± 0.17 kcal/mol
SAMKVYKAKVTIVDEEGNLLDEIELEFETEEELKEKVLEELGVSEEEIVEIELSPEVSEEEFEKKLKLESAG [r14_852_JUSTAS]	-0.425 ± 0.25 kcal/mol	0.776 ± 0.15 kcal/mol	0.347 ± 0.14 kcal/mol
SAGGSAGGSAGGMSITISVPEKTATIEIPGLGKTITIPPGETITVPIPNVPPFKITTEPPSAGGSAGGSAGG [r11_939_JUSTAS]	0.76 ± 0.059 kcal/mol	0.854 ± 0.044 kcal/mol	0.732 ± 0.086 kcal/mol
SMKINVVINITLPDGTTVTSTLNLTESEIEKTIKEKIPSSYKVEITKKDPVDPAKLPPGSSINVDLTVNLSA [r9_803_JUSTAS]	1.31 ± 0.079 kcal/mol	1.69 ± 0.15 kcal/mol	1.59 ± 0.22 kcal/mol
SAGGKKKKIEIEIVVKKEDLEKIAEELAKKLEEAGYKVKIKKIEVEVYKNKDGKIVYVKVRIEVEVEPSAGG [r13_707_TrROS_Hall]	3.05 ± 0.47 kcal/mol	4.82 ± 0.18 kcal/mol	4.65 ± 0.53 kcal/mol
SAGGKYKIEIEITEIKEKEDGTKEITIKIKIYDEETGELIYTITVKMRIDKKTNKIIIEEVKIEKLPPSAGG [r13_596_TrROS_Hall]	4.22 ± 0.29 kcal/mol	6 ± 0.36 kcal/mol	> 6 kcal/mol
SAGGSSIKIPNPNGYEIEIEVTPDRAKIKWRMPGKEQEQEFPPGEDVTIRFPDGMPLTIKIPPPGESAGGSA [r2_57_TrROS]	0.456 ± 0.089 kcal/mol	0.154 ± 0.26 kcal/mol	0.424 ± 0.13 kcal/mol
SKKKVTININITPGDPEQMEENVRWAIKEAAENDPDKEVTITIHFPPGHPEWMRWIKELFTKKGIPITIHSA [r9_1202_TrROS]	2.88 ± 0.042 kcal/mol	3.3 ± 0.037 kcal/mol	3.16 ± 0.059 kcal/mol
SAGGSAGGSAGGKKKIKVELEVKEDGTIRMKATTEDGEEIETEIKVEKVEVTVFLPPEKSAGGSAGGSAGGS [r10_237_TrROS_Hall]	1.74 ± 0.26 kcal/mol	1.18 ± 0.23 kcal/mol	1.55 ± 0.28 kcal/mol
SMVKIYFPNAPPELVAEAIEKHPDSTVEIYFEPGKPDVFESILKDYDVEVEPFPTEDGRLLVKARVKVPGSA [r9_1138_TrMRF]	2.11 ± 0.13 kcal/mol	1.32 ± 0.12 kcal/mol	1.74 ± 0.29 kcal/mol
SAGGEEELRKAAEIAAAPPLEIEPVLETFTVETEEGPRVVLVISPVVRFPGDGVLIPNPVLVIPAEELSAGG [r19_11_TrMRF]	0.861 ± 0.052 kcal/mol	0.301 ± 0.11 kcal/mol	0.699 ± 0.11 kcal/mol
SAGGSAGGSAGLTLRVKVKVELEYDPETNELTLRVEVEIELFPPPPLVVLSKEQLEELEESAGGSAGGSAGG [r17_454_TrROS_Hall]	2.67 ± 0.18 kcal/mol	3.65 ± 0.24 kcal/mol	3.21 ± 0.39 kcal/mol
SMVFTLPGGIEIKVEPEEDSYRFVIELPSGERLEVPVPPENLEEFIRELIRKALEIANPNITEEEIEKLASA [r9_634_TrMRF]	3.22 ± 0.26 kcal/mol	4.02 ± 0.09 kcal/mol	3.59 ± 0.29 kcal/mol
SLKPGEWVMFMFTIPITIRITKDDLPPGWKIKEVTIRIYVMFLFRVDPDGNFKILSFNIMIEIEVKYEPDSA [r9_747_TrROS]	4.52 ± 0.13 kcal/mol	5.1 ± 0.081 kcal/mol	4.98 ± 0.11 kcal/mol
SAGGSLEDFELAGTFPATSEGETLLVTVWKSKEPGKYVVSAYYPSTGIPEVKVVNPEDIEEFFKNLYSAGGS [r8_469_TrMRF]	1.48 ± 0.02 kcal/mol	1.95 ± 0.051 kcal/mol	1.78 ± 0.054 kcal/mol
SMTAEEIAERLARALEEAGIRRVEVEVTVEYDPETDEVTVTVTIRVEPAPEAPPEEEEERREREEREAEESA [r9_440_TrROS_Hall]	2.26 ± 0.057 kcal/mol	2.43 ± 0.09 kcal/mol	2.31 ± 0.11 kcal/mol
SAGGSAGGWIIRIHFPNGHEHTFKIKSPEEAKDRIMDHHGMPPDKIPPETIKDVEIIPPDAMKESAGGSAGG [r6_588_TrROS]	-0.0377 ± 0.11 kcal/mol	0.604 ± 0.12 kcal/mol	0.434 ± 0.18 kcal/mol
SAGGMPVPVLIVVPEDKIEEIIKKIREETDEDVEIKAFKLPDGRVLLLITFNDPQLAEDFLKKFGFGSAGGS [r16_172_TrMRF]	4.27 ± 0.23 kcal/mol	5.17 ± 0.14 kcal/mol	5.13 ± 0.17 kcal/mol
SAGSPSIVRTPSLTYDPDPRNPSTPRLRQASVTATNPNGETITFTFTSLEDMDAALNAWIAANPELLSSAGG [r19_123_JUSTAS]	0.59 ± 0.11 kcal/mol	1.74 ± 0.089 kcal/mol	1.38 ± 0.08 kcal/mol

Reference: the supplement of paper PMC12764529
